In this test the target is SARS-CoV-2 Spike protein (SARS-CoV-2, UniProt P0DTC2 14-1273). Nature of the test: cell-based or functional assay.

B1: affinity-matured nanobody R13 (VHH)
VHH: QVQLQESGGGLVQAGGSLRLSCAASGTIFQVSSMGWYRQAPGKERKFVATIADGSSTNYAGSVKGRFTISRDNAKNTVYLQMNSLKPEDTAVYYCAALGQVSEYNSASYEWTYPYWGQGTQVTVSS
For the molecule B1, the “neutralizing effect calculated by IC50 (SARS-CoV-2 pseudovirus on hACE2-293T cells), against parental R13” value was roughly 100 times.

B2: affinity-matured nanobody R18 (VHH)
VHH: QVQLQESGGGLVQAGGSLRLSCAASGSISRDYDMGWYRQAPGKERKFVAGINVGGTTNYAGSVKGRFTISRDNAKNTVYLQMNSLKPEDTAVYYCAVHAVYTDGWEDGYLYPLPYWGQGTQVTVSS
As for B2, the “neutralizing effect calculated by IC50 (SARS-CoV-2 pseudovirus on hACE2-293T cells), against parental R18” value was roughly 100 times.

The values above are taken from patent US20230218777A1 (Stanford University, published 2023).
